Where two headings read alike, the source gives them in different places.
How the values were obtained:
Test in all cases: cell-based or functional assay
[1] = target: trimeric murine IL-2 receptor (IL-2Rα, IL-2Rβ, and IL-2Rγ) on CTLL-2 cells (murine) (UniProt P01590)
[2] = target: human IL-2Rα on Treg cells (CD3+, CD4+, CD25hi, FoxP3+) of human PBMC (human) (UniProt P01589)
[3] = target: trimeric murine IL-2 receptor (IL-2Rα, IL-2Rβ, and IL-2Rγ) on CTLL-2 cells (murine) (UniProt P01590); remark: listed apart in the source

trimeric murine IL-2 receptor (IL-2Rα, IL-2Rβ, and IL-2Rγ) on CTLL-2 cells (murine), sequence (P01590 22-268, chain 1 of 3): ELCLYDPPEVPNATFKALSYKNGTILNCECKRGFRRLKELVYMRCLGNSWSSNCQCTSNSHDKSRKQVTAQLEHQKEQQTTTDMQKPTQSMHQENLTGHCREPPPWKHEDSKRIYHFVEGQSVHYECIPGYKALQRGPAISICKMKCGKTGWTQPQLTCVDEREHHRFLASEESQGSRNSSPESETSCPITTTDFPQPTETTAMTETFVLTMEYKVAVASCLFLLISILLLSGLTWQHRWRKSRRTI
trimeric murine IL-2 receptor (IL-2Rα, IL-2Rβ, and IL-2Rγ) on CTLL-2 cells (murine), sequence (P16297 27-539, chain 2 of 3, further chain): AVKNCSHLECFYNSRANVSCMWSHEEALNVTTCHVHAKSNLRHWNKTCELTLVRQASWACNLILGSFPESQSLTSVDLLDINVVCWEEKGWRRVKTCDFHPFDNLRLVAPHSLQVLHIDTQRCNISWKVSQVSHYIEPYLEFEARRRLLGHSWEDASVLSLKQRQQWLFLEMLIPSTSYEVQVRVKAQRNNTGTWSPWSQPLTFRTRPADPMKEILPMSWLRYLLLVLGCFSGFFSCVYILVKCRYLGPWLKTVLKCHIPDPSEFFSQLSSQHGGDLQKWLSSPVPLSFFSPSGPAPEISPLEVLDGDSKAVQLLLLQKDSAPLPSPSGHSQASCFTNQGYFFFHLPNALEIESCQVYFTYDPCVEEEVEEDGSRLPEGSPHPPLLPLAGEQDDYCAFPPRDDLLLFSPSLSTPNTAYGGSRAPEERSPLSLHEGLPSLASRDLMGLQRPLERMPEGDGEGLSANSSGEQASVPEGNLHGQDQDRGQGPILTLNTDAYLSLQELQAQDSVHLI
trimeric murine IL-2 receptor (IL-2Rα, IL-2Rβ, and IL-2Rγ) on CTLL-2 cells (murine), sequence (P34902 23-369, chain 3 of 3, further chain): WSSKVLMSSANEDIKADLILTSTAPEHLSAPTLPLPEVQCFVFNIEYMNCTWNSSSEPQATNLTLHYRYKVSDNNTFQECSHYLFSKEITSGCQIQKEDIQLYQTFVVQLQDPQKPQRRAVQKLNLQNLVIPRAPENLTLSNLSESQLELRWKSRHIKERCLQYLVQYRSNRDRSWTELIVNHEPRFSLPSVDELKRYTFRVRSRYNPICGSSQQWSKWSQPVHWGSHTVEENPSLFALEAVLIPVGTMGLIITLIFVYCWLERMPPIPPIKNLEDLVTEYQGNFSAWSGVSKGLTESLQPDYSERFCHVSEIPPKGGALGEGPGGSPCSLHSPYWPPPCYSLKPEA
human IL-2Rα on Treg cells (CD3+, CD4+, CD25hi, FoxP3+) of human PBMC (human), sequence (P01589 22-272): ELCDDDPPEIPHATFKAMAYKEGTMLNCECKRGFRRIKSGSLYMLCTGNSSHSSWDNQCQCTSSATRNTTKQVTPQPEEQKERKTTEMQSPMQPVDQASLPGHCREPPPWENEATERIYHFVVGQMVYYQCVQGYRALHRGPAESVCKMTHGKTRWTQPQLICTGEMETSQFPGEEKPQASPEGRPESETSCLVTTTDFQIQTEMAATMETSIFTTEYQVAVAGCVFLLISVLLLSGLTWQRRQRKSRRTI

Substance: Proleukin (from UniProt P60568 22-153) (ligand)
- STAT5 activation of CTLL-2 cells, EC50 [1]: 2 pM
- Treg EC50, STAT5 activation (PBMC STAT5 assay) [2]: < 1 pM
- STAT5 activation of CTLL-2 cells, EC50 [3]: 6 pM

From US20240269235A1
